The Kd is the free concentration of one partner at which half of the binding sites on the other are occupied at equilibrium, for simple one-to-one binding.

Assay in all cases: SPR, Carterra LSA, antibody immobilised
Experiment [1] concerns the target T1, human MerTK extracellular domain (ECD), recombinant (human, UniProt Q12866 21-505).
T1 construct: also called huMerTK; not shown: polyHis tag or TEVS/Thrombin/murine IgG2a Fc tag
T1 sequence: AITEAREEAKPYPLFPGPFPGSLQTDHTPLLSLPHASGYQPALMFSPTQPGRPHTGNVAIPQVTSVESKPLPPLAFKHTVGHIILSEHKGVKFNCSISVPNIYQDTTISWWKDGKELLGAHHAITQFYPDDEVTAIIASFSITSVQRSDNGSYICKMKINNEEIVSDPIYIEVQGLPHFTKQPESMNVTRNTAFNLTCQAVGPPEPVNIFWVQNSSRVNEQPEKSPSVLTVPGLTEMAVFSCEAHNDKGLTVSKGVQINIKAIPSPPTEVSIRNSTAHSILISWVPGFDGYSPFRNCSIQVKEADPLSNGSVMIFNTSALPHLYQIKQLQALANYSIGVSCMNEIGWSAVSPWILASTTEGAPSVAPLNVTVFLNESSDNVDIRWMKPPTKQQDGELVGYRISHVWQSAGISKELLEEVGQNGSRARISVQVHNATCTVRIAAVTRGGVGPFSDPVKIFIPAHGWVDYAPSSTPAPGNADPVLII
As for the experimental part: (§1) Binding kinetics of humanized and affinity-matured anti-MerTK antibodies of the present disclosure to human, murine, and cynomolgus MerTK proteins were evaluated as follows. Briefly, anti-MerTK antibodies were prepared by diluting to 10 μg/ml in 10 mM Acetate, pH 4.25 (Carterra, Salt Lake City, Utah), at 300 μl/well. A HC200M sensor chip (Carterra) was activated using the single channel flow cell with a 7-minute injection of a 1:1:1 mixture of 100 mM MES pH 5.5, 100 mM sulfo-NHS, 400 mM EDC (all reconstituted in MES pH 5.5; 100 μl of each mixed in vial immediately before running assay). After switching to the multi-channel array flow cell, the antibodies were injected over the activated chip in a 96-spot array for 15 minutes. The remaining unconjugated active groups on the chip were then blocked by injecting 1M Ethanolamine pH 8.5 (Carterra) for 7 minutes using the single channel flow cell.
(§2) Estimates of affinity were generated by injecting each analyte over the entire antibody array using the single channel flow cell. MerTK analytes were diluted to 33.3, 100, and 300 nM in running buffer, and injected in serial from lowest to highest concentration without regeneration. Two buffer blanks were run between each series (one species per series). Data were processed and analyzed using NextGenKIT high-throughput kinetics analysis software (Carterra). In these experiments, the anti-MerTK antibodies were human IgG1 isotype containing the Fc variant LALAPS.
(§3) The equilibrium dissociation constants (KD) were then calculated from the fitted association and dissociation rate constants (k-on and k-off) for anti-MerTK antibodies of the present disclosure.

Experiment [2] deals with T2, cyno MerTK extracellular domain (ECD), recombinant (cynomolgus monkey, UniProt Q12866 21-505 (human entry)).
T2 construct: also called cynomolgus MerTK; not shown: polyHis tag or TEVS/Thrombin/murine IgG2a Fc tag
T2 chain: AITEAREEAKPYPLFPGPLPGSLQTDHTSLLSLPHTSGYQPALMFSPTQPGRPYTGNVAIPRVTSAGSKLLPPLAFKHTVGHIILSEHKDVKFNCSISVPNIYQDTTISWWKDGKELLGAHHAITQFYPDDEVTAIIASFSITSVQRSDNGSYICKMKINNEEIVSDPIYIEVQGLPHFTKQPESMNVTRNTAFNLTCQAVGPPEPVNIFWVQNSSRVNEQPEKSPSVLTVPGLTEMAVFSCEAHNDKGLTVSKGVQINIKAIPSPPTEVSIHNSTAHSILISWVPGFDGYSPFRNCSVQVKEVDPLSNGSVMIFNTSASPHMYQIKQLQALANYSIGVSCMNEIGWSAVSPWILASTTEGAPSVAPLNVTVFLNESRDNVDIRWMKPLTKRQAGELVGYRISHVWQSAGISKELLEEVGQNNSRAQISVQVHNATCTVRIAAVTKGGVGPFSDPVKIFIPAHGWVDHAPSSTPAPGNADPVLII
As for the experimental part: as §1, §2, §3

Experiment [3] concerns the target T3, murine MerTK extracellular domain (ECD), recombinant (mouse, UniProt Q60805 19-497).
T3 construct: also called moMerTK; mouse MerTK; not shown: polyHis tag or TEVS/Thrombin/murine IgG2a Fc tag
T3 sequence: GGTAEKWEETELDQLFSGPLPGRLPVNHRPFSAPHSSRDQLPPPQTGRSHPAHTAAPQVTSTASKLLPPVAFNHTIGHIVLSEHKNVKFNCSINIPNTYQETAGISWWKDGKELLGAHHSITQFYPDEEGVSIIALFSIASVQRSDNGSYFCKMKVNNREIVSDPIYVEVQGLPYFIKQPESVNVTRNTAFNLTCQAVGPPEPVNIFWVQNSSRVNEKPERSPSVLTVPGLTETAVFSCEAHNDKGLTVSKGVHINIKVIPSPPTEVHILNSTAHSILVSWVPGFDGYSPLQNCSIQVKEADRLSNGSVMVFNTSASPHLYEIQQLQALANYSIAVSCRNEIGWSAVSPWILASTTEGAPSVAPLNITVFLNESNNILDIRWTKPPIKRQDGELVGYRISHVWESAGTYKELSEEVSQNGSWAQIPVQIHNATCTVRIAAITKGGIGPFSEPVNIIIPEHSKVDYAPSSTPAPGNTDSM
As for the experimental part:
as §1, §2, §3

B1: MTK-33.7 (antibody, human IgG1, V domains shown)
VH: QVQLVQSGAEVKKPGASVKVSCKASGYTFTSYWMHWVRQAPGQGLEWIGVIDPSDNYINYNAKFQGRVTMTRDTSTSTVYMELSSLRSEDTAVYYCAREAGTRGYFDYWGQGTLVTVSS
VL: DIQMTQSPSSLSASVGDRVTITCGASQSVSNTVAWYQQKPGKAPKLLIYYASNRYTGVPSRFSGSGSGTDFTFTISSLQPEDIATYYCQQDYRSPFTFGQGTKLEIK
As for B1, the Kd in experiment [1] was determined as 78 nM; in experiment [2] it was 78 nM; in experiment [3] it was 800 nM.

B2: MTK-33.10 (antibody, V domains shown)
VH: QVQLVQSGAEVKKPGASVKVSCKASSYSFTSYWMHWVRQAPGQGLEWIGVIDPSDNYINYNQKFRGRVTMTRDTSTSTVYMELSSLRSEDTAVYYCAREAGTRGYFDYWGQGTLVTVSS
VL: DIQMTQSPSSLSASVGDRVTITCQAGQSVSNTVAWYQQKPGKAPKLLIYYASNRYTGVPSRFSGSGSGTDFTFTISSLQPEDIATYYCQQDYRSPFTFGQGTKLEIK
For B2, the Kd in experiment [1] came to 41 nM; in experiment [2], 38 nM; in experiment [3], 150 nM.

B3: MTK-33.12 (antibody, V domains shown)
VH: QVQLVQSGAEVKKPGASVKVSCKASGYTFVSYWMHWVRQAPGQGLEWIGVIDPSDNYINYNQKFRGRVTMTRDTSTSTVYMELSSLRSEDTAVYYCAREAGTRGYFDYWGQGTLVTVSS
VL: DIQMTQSPSSLSASVGDRVTITCQASQSVSNTVAWYQQKPGKAPKLLIYYASNRYTGVPSRFSGSGSGTDFTFTISSLQPEDIATYYCRQDTRSPFTFGQGTKLELK
Consider B3, for which the results for the Kd in experiment [1], in experiment [2] and in experiment [3] were 8.6 nM, 7.9 nM and 230 nM, respectively.

B4: MTK-33.15 (antibody, human IgG1, V domains shown)
VH: QVQLVQSGAEVKKPGASVKVSCKASGYTFTSYWMHWVRQAPGQGLEWIGVIDPSDNYINYNQKFQVRVTMTRDTSTSTVYMELSSLRSEDTAVYYCAREAGTRGYFDYWGQGTLVTVSS
VL: DIQMTQSPSSLSASVGDRVTITCQASRSVSNTVAWYQQKPGKAPKLLIYYASNRYTGVPSRFSGSGSGTDFTFTISSLQPEDIATYYCQQDMRSPFTFGQGTKLEIK
For the molecule B4, the figures for the Kd in experiment [1], in experiment [2] and in experiment [3] were 4.6 nM, 4 nM and 105 nM, respectively.

B5: MTK-33.8 (antibody, human IgG1, V domains shown)
VH: QVQLVQSGAEVKKPGASVKVSCKASGYTFTSYWMHWVRQAPGQGLEWIGVIDPSDNYINYNQKFQGRVTMTRDTSTSTVYMELSSLRSEDTAVYYCAREAWTRGYFNYWGQGTLVTVSS
VL: DIQMTQSPSSLSASVGDRVTITCQASQSVSRTVAWYQQKPGKAPKLLIYYASNRYTGVPSRFSGSGSGTDFTFTISSLQPEDIATYYCQQDYRSPFTFGQGTKLEIK
Take B5: the figures for the Kd in experiment [1], in experiment [2] and in experiment [3] were 41 nM, 41 nM and 465 nM, respectively.

B6: MTK-33.21 (antibody, human IgG1, V domains shown)
VH: QVQLVQSGAEVKKPGASVKVSCKASGYTFTSYWMHWVRQAPGQGLEWIGVIDPSDNYINYNQKFRGRVTMTRDTSTSTVYMELSSLRSEDTAVYYCAREAGTRGYFDYWGQGTLVTVSS
VL: DIQMTQSPSSLSASVGGRVTITCQASRSVSNTVAWYQQKPGKAPKLLIYYVSNRYTGVPSRFSGSGSGTDFTFTISSLQPEDIATYYCQQDMRSPFTFGQGTKLEIK
For B6, the Kd in experiment [1] is 0.4 nM; in experiment [2], 0.3 nM; in experiment [3] it was 44 nM.

B7: MTK-33.16 (antibody, human IgG1, V domains shown)
VH: QVQLVQSGAEVKKPGASVKVSCKASWYTFTSYWMHWVRQAPGQGLEWIGVIDPSDNYINYNQKFQGRVTMTRDTSTSTVYMELSSLRSEDTAVYYCAREAGTRGYFDYWGQGTLVTVSS
VL: DIQMTQSPSSLSASVGDRVTITCQASRSVSNTVAWYQQKPGKAPKLLIYYASNRYTGVPSRFSGSGSGTDFTFTISSLQPEDIATYYCQQDYRSPFTFGQGTKLEIK
For B7, the Kd was 10.9 nM in experiment [1], 10.1 nM in experiment [2] and 225 nM in experiment [3].

B8: MTK-33.11 (antibody, human IgG1, V domains shown)
VH: QVQLVQSGAEVKKPGASVKVSCKASGYTFTSYWMHWVRQAPGQGLEWIGVIDPSDNYINYNQKFQGRVTMTRDTSTSTVYMELSSLRSEDTAVYYCAREAWTRGYFDYWGQGTLVTVSS
VL: DIQMTQSPSSLSASVGDRVTITCQASRSVRNTVAWYQQKPGKAPKLLIYYASNRYTGVPSRFSGSGSGTDFTFTISSLQPEDIATYYCQQDYRSPFTFGQGTKLEIK
On to B8, for which the Kd in experiment [1] is 11 nM; in experiment [2], 10.1 nM; in experiment [3], 115 nM.

B9: MTK-33.17 (antibody, human IgG1, V domains shown)
VH: QVQLVQSGAEVKKPGASVKVSCKASGYTFTSYWMHWVRQAPGQGLEWIGVIAPSDNYINYNQKFRGRVTMTRDTSTSTVYMELSSLRSEDTAVYYCAREAGTRGYFDYWGQGTLVTVSS
VL: DIQMTQSPSSLSASVGDRVTITCQASRSVSNTVAWYQQKPGKAPKLLIYYASNRYTGVPSRFSGSGSGTDFTFTISSLQPEDIATYYCQQDMRSPFTFGQGTKLEIK
As for B9, the results for the Kd in experiment [1], in experiment [2] and in experiment [3] were 20.4 nM, 19.9 nM and 505 nM, respectively.

B10: MTK-33.14 (antibody, human IgG1, V domains shown)
VH: QVQLVQSGAEVKKPGASVKVSCKASGYTFTSYWMHWVRQAPGQGLEWIGVIDPSDNYINYNQKFRGRVTMTRDTSTSTVYMELSSLRSEDTAVYYCAREAGTRGYFDYWGQGTLVTVSS
VL: DIQMTQSPSSLSASVGDRVTITCQASQSVSNTVAWYQQKPGKAPKLLIYYASNRYTGVPSRFSGSGSGTDFTFTISSLQPEDIATYYCQQDYRSPFTFGQGTKLEIK
As for B10, the Kd came to 30.5 nM in experiment [1], 29 nM in experiment [2] and 275 nM in experiment [3].

The values above are taken from patent publication US20210261685A1 (Alector, published 2021).
